Laboratory results: patent US9617344B2, “Fusion protein comprising targeting moiety, cleavage site, and cell membrane penetrating domain, and use thereof” (Samsung Electronics Co., Ltd., priority 2014, dated 2017)
Each block holds one molecule with its values, some of them ahead of it.

What was measured:
MDA-MB-231 xenograft = assay: Anticancer effect in MDA-MB-231 xenograft mouse model; format: in vivo, BALB/c nude mouse; conditions: 75 uM/0.1 ml/mouse administered to the tumor tissue once a day
Protocol: To examine the anticancer effect of the conjugate of Example 2, a xenograft mouse model was employed. The xenograft mouse model was prepared by an […] injection of intractable breast cancer cell line MDA-MB-231 into breast tissue of 6-week old BALB/c nude mouse to form a tumor tissue.
In particular, 8×10^6 cells (in 0.08 ml of PBS with matrigel) of MDA-MB-231 (ATCC) were […] of 6-week old BALB/c nude mouse to prepare a xenograft mouse model (Orthotopic mouse model). When the tumor size reaches […], the xenograft mouse model was used in the following experiment.
The obtained results are shown in FIG. 7, and the degree (%) of tumor size reduction (tumor growth inhibition; TGI) compared to the buffer administered group calculated from the results of FIG. 7 was shown in Table 4: […]

A431 cells = assay: Cell cycle arrest test (gene transfection, DNA content by FACS); format: cell-based; conditions: gene transfected into A431 cells with Lipofectamine 2000; compared to p16WT; FIGS. 3 and 4
Protocol: A vector containing a gene encoding ‘p16M7’ or ‘p16WT’ (wild-type) was transfected into A431 cells (ATCC) by liposomal transfection method using Lipofectamine 2000 (Invitrogen) (see Example 1). The transfection was performed according to a manual provided by Invitrogen. 24 hours after the transfection, the medium was exchanged with a fresh medium. At 24 hours 48 hours thereafter, DNA contents were measured by FACS.
After transfecting the p16M7 gene or p16WT gene into cells using Lipo2000, the presence of cell cycle arrest was observed. […] For labeling, pEGFP-C2 vector (Clontech) for p16WT and p16M7 (indicated as “p16 Mut” in FIG. 3). […] FIG. 4 contains graphs quantitatively showing the degree of cell cycle arrest of FIG. 3, wherein “% frequency” of Y axis refers to a value of cell population obtained through Flow jo software, each symbol in X axis refers to the follows: C2-6: using EGFP only (6 ul), C2-10: using EGFP only (10 ul), Mut: using p16M7 (6 ul or 10 ul) and WT: using p16WT (6 ul or 10 ul).

EGFR present in A431 = target: T1, EGFR present in A431 (Homo sapiens, UniProt P00533); assay: Tumor cell targeting test (confocal imaging of protein binding to A431 cells); format: cell-based; conditions: A431 cells treated with 7.5 or 15 ug/ml for one hour; fluorescent imaging, FIG. 2; positive control Erbitux
T1 construct: EGFR present in A431; host or cells: A431

B1: D(EGFR)-M9R-MTS-NLS-p16M7: Conjugate: anti-EGFR DARPin (SEQ ID NO: 7), MMP9 cleavage site M9R, MTS-NLS fusion peptide, p16 variant p16M7; SEQ ID NO: 35 (protein)
chain: DLGKKLLEAARAGQDDEVRILMANGADVNADDTWGWTPLHLAAYQGHLEIVEVLLKNGADVNAYDYIGWTPLHLAADGHLEIVEVLLKNGADVNASDYIGDTPLHLAAHNGHLEIVEVLLKHGADVNAQDKFGKTAFDISIDNGNEDLAEILQSGKIPRTLTAAAVALLPAVLLALLAPKKKRKMEPAAGSSMEPSADKLATAAARGRVEEVRALLEAGADPNAPNSYGRRPIQVMMMGSARVAELLLKHGAEPNSADPATSTRPVHDAAREGFLDTLVVLHRAGARLDARDAWGRTPVDLAEELGHRDVARYLRAAAGGTRGSNHARIDAAEGPSDIPD
modifications: Synthetic Conjugate (anti-EGFR DARPin-M9R- MTS-NLS-p16M7)
increased anticancer effect compared to the control [Darpin(EGFR)] (MDA-MB-231 xenograft; versus D(EGFR) group): about 21.4%

B2: D(EGFR)-M9R-p16M7: Comparison conjugate lacking MTS-NLS: SEQ ID NO: 7-SEQ ID NO: 26-SEQ ID NO: 2 (protein)
chain: DLGKKLLEAARAGQDDEVRILMANGADVNADDTWGWTPLHLAAYQGHLEIVEVLLKNGADVNAYDYIGWTPLHLAADGHLEIVEVLLKNGADVNASDYIGDTPLHLAAHNGHLEIVEVLLKHGADVNAQDKFGKTAFDISIDNGNEDLAEILQSGKIPRTLTAMEPAAGSSMEPSADKLATAAARGRVEEVRALLEAGADPNAPNSYGRRPIQVMMMGSARVAELLLKHGAEPNSADPATSTRPVHDAAREGFLDTLVVLHRAGARLDARDAWGRTPVDLAEELGHRDVARYLRAAAGGTRGSNHARIDAAEGPSDIPD
modifications: Synthetic anti-EGFR DARPin-01; Synthetic MMP9 cleavage region; Synthetic Human p16 Variant
degree (%) of tumor size reduction (tumor growth inhibition; TGI) compared to the buffer administered group (MDA-MB-231 xenograft; n=10, calculated from FIG. 7): 50.0%

B3: p16M7: Human p16 protein variant with seven substitutions for improved solubility (SEQ ID NO: 2) (protein)
chain: MEPAAGSSMEPSADKLATAAARGRVEEVRALLEAGADPNAPNSYGRRPIQVMMMGSARVAELLLKHGAEPNSADPATSTRPVHDAAREGFLDTLVVLHRAGARLDARDAWGRTPVDLAEELGHRDVARYLRAAAGGTRGSNHARIDAAEGPSDIPD
modifications: Synthetic Human p16 Variant
cell cycle arrest effect (A431 cells): maintaining the cell cycle arrest effect

binding ability to EGFR present in A431 (EGFR present in A431): little binding ability
B4: Darpin: Negative control; Mock Darpin having no binding target; SEQ ID NO: 43 (protein)
chain: GSDLGKKLLEAARAGQDDEVRILMANGADVNAEDKVGLTPLHLAAMNDHLEIVEVLLKNGADVNAIDAIGETPLHLVAMYGHLEIVEVLLKHGADVNAQDKFGKTAFDISIDNGNEDLAEILQKLN
modifications: Synthetic Non-EGFR targeting DARPin
